# T1: 1-27 CD3-EpCAM, swine 27 mer (domestic swine (Sus scrofa); cynomolgus)
# T1 construct: Negative control, on transfected cells; also called 1-27 N-terminal CD3 epsilon of swine fused to cynomolgus EpCAM
# T1 chain: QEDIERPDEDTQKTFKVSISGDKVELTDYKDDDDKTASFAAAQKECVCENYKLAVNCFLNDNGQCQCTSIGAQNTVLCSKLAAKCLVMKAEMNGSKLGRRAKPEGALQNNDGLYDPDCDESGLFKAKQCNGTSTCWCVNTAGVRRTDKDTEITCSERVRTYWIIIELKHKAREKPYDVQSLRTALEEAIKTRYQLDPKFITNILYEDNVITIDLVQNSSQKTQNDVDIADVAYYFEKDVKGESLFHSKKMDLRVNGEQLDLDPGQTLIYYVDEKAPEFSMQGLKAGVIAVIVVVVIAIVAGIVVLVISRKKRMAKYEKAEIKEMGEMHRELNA
# T2: 1-27 CD3-EpCAM, human 27 mer (human; cynomolgus)
# T2 construct: On transfected cells; also called N-terminal amino acids 1-27 of human CD3 epsilon fused to Flag tagged cynomolgus EpCAM
# T2 chain: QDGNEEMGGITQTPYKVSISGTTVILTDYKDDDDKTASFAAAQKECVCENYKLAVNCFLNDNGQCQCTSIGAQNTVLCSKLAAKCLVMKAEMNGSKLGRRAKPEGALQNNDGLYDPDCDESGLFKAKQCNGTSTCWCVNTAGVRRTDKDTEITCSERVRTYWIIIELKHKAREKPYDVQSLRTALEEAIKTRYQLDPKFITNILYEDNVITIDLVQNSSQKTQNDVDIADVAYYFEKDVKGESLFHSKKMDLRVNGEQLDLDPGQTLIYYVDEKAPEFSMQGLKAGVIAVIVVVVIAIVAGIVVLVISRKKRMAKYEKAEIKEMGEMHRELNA
# What was measured:
# 1-27 CD3-Fc [1] = target: T3, 1-27 CD3-Fc (human); experiment: SPR (Biacore), 1-27 CD3-Fc immobilised
# T3 construct: also called 27 aa huCD3E; human CD3 epsilon (aa 1-27)-Fc fusion protein
# 1-27 CD3-Fc [2] = target: T3, 1-27 CD3-Fc; experiment: ELISA, captured 1-27 CD3-Fc
# [3] = target: T1, 1-27 CD3-EpCAM, swine 27 mer; experiment: FACS on 293-HEK transfectants
# [4] = target: T2, 1-27 CD3-EpCAM, human 27 mer; experiment: FACS 293-HEK transfectant
# [5] = target: T4, human CD3 (native, on HPB-ALL cells or human PBMC) (human, UniProt P07766 23-207); experiment: FACS HPB-ALL
# T4 construct: whole, on cells; Other chains of the CD3/TCR complex are present on the cells; also called human CD3 epsilon; native CD3 on intact T cells
# T4 sequence (P07766 23-207): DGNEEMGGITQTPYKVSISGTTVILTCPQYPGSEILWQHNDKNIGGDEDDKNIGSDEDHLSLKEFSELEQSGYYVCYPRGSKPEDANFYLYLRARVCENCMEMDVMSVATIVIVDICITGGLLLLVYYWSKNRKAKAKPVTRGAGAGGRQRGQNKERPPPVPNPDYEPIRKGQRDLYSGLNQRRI
Binder,Kd (1-27 CD3-Fc [1]) [nM],binding result (1-27 CD3-Fc [2]),other results
"EGFR-21-63 LH × A2J HLP (bispecific antibody, also called EGFR LH × A2J HLP) DIVLTQSPASLPVSLGQRATISCRASQSVSSSTYSYIHWYQQKPGQPPKLLITYASNLESGVPARFSGSGSGTDFTLDIHPVEEDDSSTYYCQHSWEIPFTFGSGTKLEIKGGGGSGGGGSGGGGSQVQLQQSGPDLVKPGASVKMSCKASGHTFTDCVIIWVKQRAGQGLEWIGQIYPGTGRSYYNEIFKGKATLTADKSSNTVHIQLSSLTSEDSAVYFCALSTLIHGTWFSYWGQGTLVTVSSGGGGSEVQLLESGGGLVQPGGSLKLSCAASGFTFNVYAMNWVRQAPGKGLEWVARIRSKYNNYATYYADSVKKRFTISRDDSKNTAYLQMNNLKTEDTAVYYCVRHGNFGNSYLSWWAYWGQGTLVTVSSGGGGSGGGGSGGGGSELVVTQEPSLTVSPGGTVTLTCRSSTGAVTSGYYPNWVQQKPGQAPRGLIGATDMRPSGTPARFSGSLLGGKAALTLSGVQPEDEAEYYCALWYSNRWVFGGGTKLTVL",249,–,–
"EGFR-21-63 LH × E2M HLP (bispecific antibody, also called EGFR LH × E2M HLP) DIVLTQSPASLPVSLGQRATISCRASQSVSSSTYSYIHWYQQKPGQPPKLLITYASNLESGVPARFSGSGSGTDFTLDIHPVEEDDSSTYYCQHSWEIPFTFGSGTKLEIKGGGGSGGGGSGGGGSQVQLQQSGPDLVKPGASVKMSCKASGHTFTDCVIIWVKQRAGQGLEWIGQIYPGTGRSYYNEIFKGKATLTADKSSNTVHIQLSSLTSEDSAVYFCALSTLIHGTWFSYWGQGTLVTVSSGGGGSEVQLLESGGGLVQPGGSLKLSCAASGFTFNGYAMNWVRQAPGKGLEWVARIRSKYNNYATYYADSVKERFTISRDDSKNTAYLQMNNLKTEDTAVYYCVRHRNFGNSYLSWFAYWGQGTLVTVSSGGGGSGGGGSGGGGSELVVTQEPSLTVSPGGTVTLTCRSSTGAVTSGYYPNWVQQKPGQAPRGLIGATDMRPSGTPARFSGSLLGGKAALTLSGVQPEDEAEYYCALWYSNRWVFGGGTKLTVL",2460,–,–
"E2M HLP (scFv, crude periplasmic preparation, Flag and His6 tagged) scFv: EVQLLESGGGLVQPGGSLKLSCAASGFTFNGYAMNWVRQAPGKGLEWVARIRSKYNNYATYYADSVKERFTISRDDSKNTAYLQMNNLKTEDTAVYYCVRHRNFGNSYLSWFAYWGQGTLVTVSSGGGGSGGGGSGGGGSELVVTQEPSLTVSPGGTVTLTCRSSTGAVTSGYYPNWVQQKPGQAPRGLIGATDMRPSGTPARFSGSLLGGKAALTLSGVQPEDEAEYYCALWYSNRWVFGGGTKLTVL",–,binds,binding result [3]: no binding; binding result [4]: binds
"A2J HLP (scFv, crude periplasmic preparation, Flag and His6 tagged) scFv: EVQLLESGGGLVQPGGSLKLSCAASGFTFNVYAMNWVRQAPGKGLEWVARIRSKYNNYATYYADSVKKRFTISRDDSKNTAYLQMNNLKTEDTAVYYCVRHGNFGNSYLSWWAYWGQGTLVTVSSGGGGSGGGGSGGGGSELVVTQEPSLTVSPGGTVTLTCRSSTGAVTSGYYPNWVQQKPGQAPRGLIGATDMRPSGTPARFSGSLLGGKAALTLSGVQPEDEAEYYCALWYSNRWVFGGGTKLTVL",–,binds,–
MCSP-G4 HLP × E2M HLP (bispecific antibody) QVQLVQSGAEVKRPGASMKVSCKASGYTFTNYYIHWVRQAPGQGLEWMGWINPNSGATNYAQKFQGRVTMTRDTSTSTVYMELSSLRSEDTAVYYCAKSWVSWFASWGQGTLVTVSSGGGGSGGGGSGGGGSELVMTQSPDSLAVSLGERATINCKSSQSVLNSSNNRNYLAWYQQKPGQPPKLLIYWASTRESGVPDRFSGSGSGTDFTLTISGLQAEDVAVYYCQQHYSTPFTFGPGTKVDIKSGGGGSEVQLLESGGGLVQPGGSLKLSCAASGFTFNGYAMNWVRQAPGKGLEWVARIRSKYNNYATYYADSVKERFTISRDDSKNTAYLQMNNLKTEDTAVYYCVRHRNFGNSYLSWFAYWGQGTLVTVSSGGGGSGGGGSGGGGSELVVTQEPSLTVSPGGTVTLTCRSSTGAVTSGYYPNWVQQKPGQAPRGLIGATDMRPSGTPARFSGSLLGGKAALTLSGVQPEDEAEYYCALWYSNRWVFGGGTKLTVL,–,–,binding result [5]: binds

# From US20100150918A1 (MICROMET, published 2010)
